Data published in US20080089862A1, “PROTEASE INHIBITORS AND METHOD OF SCREENING THEREOF” (priority 2005, published 2008).

B1: scFv 1: NS3-inhibiting single-chain antibody, SEQ ID NO:1; MBP fusion SEQ ID NO:15 (protein)
scFv: EVQLQQSGPELVKPGASVKMSCKASGYTFTDYYIKWVKQSHGKSLEWIGVINPGSGGTNYNEKFKGKATLTADKSSSTAYMQLSSLTSENSAVYFCARRAGTGYYFDYWGQGTTVTVSSGGGGSGGGGSGGGGSDVLMTQTPLSLPVSLGDQASISCRSSQSIVHSNGNTYLEWYLQKPGQSPKLLIYKVSNRFSGVPDRFSGSGSGTDFTLKISRVEAEDLGVYYCFQGSHVPLTFGAGTKLEIKR
modifications: scFv inhibitor
B2: scFv 171: NS3-inhibiting single-chain antibody, SEQ ID NO:6; MBP fusion SEQ ID NO:20 (protein)
scFv: EVQLQQSGAELVRSGASVKLSCTASGFNIKDYYMHWVKQRPEQGLEWIGWIDPENGDTEYAPKFQGKATMTADTSSNTAYLQLSSLTSEDTAVYYCNAWGGSSDYYAMDYWGQGTSVTVSSGGGGSGGGGSGGGGSDVVMTQTPLSLPVSLGDQASISCRSSQSLVHSNGNTYLHWYLQKPGQSPKLLIYKVSNRFSGVPDRFSGSGSGTDFTLKISRVEAEDLGVYYCFQGSHVPWTFGGGTKLEIKR
modifications: scFv inhibitor
B3: scFv 162: NS3-inhibiting single-chain antibody, SEQ ID NO:5; MBP fusion SEQ ID NO:19 (protein)
scFv: EVQLQQSGAELVRSGASVKLSCTASGFNIKDYYMHWVKQRPEQGLEWIGWIDPANGNTKYDPKFQGKATITADTSSNTAYLQLSSLTSEDTAVYYCARWDWYFDVWGAGTTVTVSSGGGGSGGGGSGGGGSSVLMTQTPLSLPVSLGDQASISCRSSQSIVHSNGNTYLEWYLQKPGQSPKLLIYKVSNRFSGVPDRFSGSGSGTDFTLKISRVEAEDLGVYYCFQGSHVPWTFGGGTKLELKR
modifications: scFv inhibitor
B4: scFv 10: NS3-inhibiting single-chain antibody, SEQ ID NO:11; MBP fusion SEQ ID NO:25 (protein)
scFv: QVQLQQSGAELMKPGASVKISCKATGYTFSNYWIEWVKQRPGHGLEWIGGILPGSGSTNYNEKFKGKATFTADTSSNTAYLQLSSLTSEDTAVYYCNADGPPGFDYWGQGTTLTVSSGGGGSGGGGSGGGGSDVLMTQTPLTLSVTIGQPASISCKSSQSLLDSDGKTYLNWLLQRPGQSPKRLIYLVSKLDSGVPDRFTGSGSGTDFTLKISRVEAEDLGVYYCFQGSHVPFTFGSGTKLEIKR
modifications: scFv inhibitor
B5: scFv 11: NS3-inhibiting single-chain antibody, SEQ ID NO:10; MBP fusion SEQ ID NO:24 (protein)
scFv: EVQLQQSGAELVKPGASVKLSCTASGFNIKDYYMHWVKQRPGQGLEYIGRIYPGNGQTDYNGKFKGKATLTADKSSSTAYMQLSSLTSVDSAVYFCARGLFAYWGQGTLVTVSSGGGGSGGGGSGGGGSDVVMTQTPLSLPVSFGDQVSISCRSSQSLANSYGNTYLSWCLHKPGQSPQLLIYGISNRFSGVPDRFSGSGSGTDFTLKISTIKPEDLGMYYCLQGTHQPLTFGAGTKLEIKR
modifications: scFv inhibitor
B6: scFv 148: NS3-inhibiting single-chain antibody, SEQ ID NO:7; MBP fusion SEQ ID NO:21 (protein)
scFv: EIQLQQSGAELVKPGASVKLSCTASGFNIKDTFVHWVKQRPEQGLEWIGRIDPANGNTKYDPKFQGKATITAATSSNTAYLQLSSLTSEDTAVYYCATGLDYYAMDYWGQGTSVTVSSGGGGSGGGGSGGGGSDVVMTQTPLSPPVSLGDQASISCRSSQSLVHSNGNTYLHWYLQKPGQSPKLLIYKVSNRFSGVPDRFSGSGSGTDFTLKITRVEAEDLGLYFCSQSTHVPWTFGGGTKLEIKR
modifications: scFv inhibitor

Key:
[1] = target: T1, scNS3 (Hepatitis C virus genotype 1b, UniProt P26663); experiment: Competition ELISA with myc-tagged tracer scFvs 171 and 35 on scNS3-coated plates; assay type: binding, Hepatitis C virus (HCV) genotype Ib; details: tracers scFv 171 and 35, myc tag
T1 construct: a single-chain fusion linking the NS4A cofactor peptide to the N-terminus of the NS3 protease; inferred from the IMAC purification; made in house; host or cells: E. coli BL-21 (DE3) carrying pYB-43
Method: For competition ELISA the inventors replaced the C-terminal FLAG epitope of the scFvs that were used as tracers with a myc tag. Competing scFvs were added to scNS3-coated plates at varying concentrations and incubated at room temperature for 1 hr before adding the tracer scFvs. Binding of the tracers was monitored using a HRP-conjugated anti myc antibody (Sigma, Israel).

[2] = target: T2, MBP-scNS3 (Hepatitis C virus genotype 1b, UniProt P26663); experiment: ONPG hydrolysis (β-galactosidase) assay in genetic screening bacteria as indicator of NS3 activity; assay type: cell-based, Hepatitis C virus (HCV) genotype Ib; details: E. coli TG-I carrying pMGT14 and pMALc-NN-scFv; taken from FIG. 3A
T2 construct: made in house
Method: (§1) NS3 catalysis inhibition assays. Blue colonies of E. coli TG-I cells carrying pMGT14 and pMALc-NN-scFv that were isolated by the genetic screening were grown in LB medium supplemented with 100 μg/ml ampicillin, 50 μg/ml kanamycin and induced with 0.2% (w/v) arabinose and 0.5 mM IPTG at O.D600nm=0.6 for 4 hr at 30° C. To measure the β-galactosidase activity an ONPG hydrolysis assay (Bach et al., 2001) was carried out. An in vitro fluorometric assay for the measurement of NS3 protease catalysis inhibition by the purified scFvs was carried out essentially as described (Berdichevsky et al., 2003) with the following modifications: the EFGP-NS5A/B-CBD substrate was immobilized onto cellulose prior to its exposure to enzyme and inhibitor. The reactions were carried out in 96 well plates in a volume of 100 μl containing 5 μM immobilized substrate, 100 nM MBP-5cNS3 and 2.4 or 1.2 μM of tested MBP-scFv.

[3] = target: T2, MBP-scNS3; experiment: In vitro fluorometric assay of NS3 protease catalysis inhibition; assay type: biochemical, Hepatitis C virus (HCV) genotype Ib; details: 100% minus % catalysis of FIG. 3B; 100 nM MBP-scNS3, 5 μM immobilized substrate, 2.4 or 1.2 μM MBP-scFv
Method: as §1

[4] = target: T3, NS3 (Hepatitis C virus genotype 1b, UniProt P26663); experiment: Competitive in vitro fluorometric assay with epitope mimetic peptide; assay type: biochemical, Hepatitis C virus (HCV); details: scFv 200 μg/ml
T3 construct: made in house
From the text: In order to confirm the prediction of scFv 35 and 171 shared epitope on NS3, the epitope was reconstituted on basis of the prediction. To that end, a short peptide segment of NS3 that was predicted to comprise the antibodies shared epitope was used to generate an epitope mimetic. […] As negative controls, a peptide 21 amino acids in length denoted peptide 6 (N′-[…]-C, SEQ ID NO: 111) and a peptide eight amino acids in length denoted peptide x (N′-[…]-C, SEQ ID NO: 112) were used. To test whether those peptides have any effect on NS3 catalytic activity a control in vitro assay was performed, in which the peptides and the NS3 enzyme were added alone without the inhibitor antibodies.

[5] = test system: HCV RNA replicons; experiment: Inhibition of HCV RNA replicon amplification, SEAP secretion from replicon-bearing Huh7 cells transfected with intrabodies; assay type: cell-based, HCV genotype Ib strain N; details: transiently transfected intrabodies
Method: Cells and transfections. HCV genotype Ib strain N subgenomic replicon cell lines were obtained from Stanley Lemon and are described in (Bourne et al., 2005). En5-3 cells are a clonal cell line derived from Huh7 cells by stable transformation with the plasmid pLTR-SEAP. These cells were cultured in DMEM supplemented with 10% fetal calf serum, 2 μg/ml blasticidin (Invitrogen), penicillin, and streptomycin. Following transfection with Ntat2ANeo replicon RNAs, cells supporting replicon amplification were selected and maintained in the above media containing in addition 400 μg/ml G418 (geneticin). Cell lines were passaged once or twice per week. […] The culture medium was replaced every 24 h post transfection and the secreted alkaline phosphatase (SEAP) activity was measured in these fluids as described below, reflecting the daily production of SEAP by the cells.
Alkaline phosphatase assay. […] The luminescent signal was read using a TD-20/20 Luminometer (Turner Designs, Inc.).
For intracellular expression of the anti-NS3 protease single-chain antibodies in the cytoplasm of mammalian cells, the scFvs coding genes were subcloned as Ncol-Notl fragments, form plasmid pMALc-NN-scFv into the pCMV/myc/cyto-MBP vector (Shaki-Loewenstein et al, 2005). […] SEAP activity secreted from the cells was measured over successive 24-h intervals. […]

Row | Molecule | competition with scFvs 171 and 35 for specific binding to scNS3 [1] | β-gal: β-galactosidase units [2] | % inhibition [3] [%] | NS3 catalysis with scFv, without peptide ([4]; no peptide) [%] | NS3 catalysis with scFv in the presence of the epitope mimetic peptide ([4]; peptide mimetic 50 μM) [%] | increase of NS3 catalytic activity on adding the peptide mimetic ([4]; peptide mimetic 50 μM) | inhibition of SEAP secretion (in words) [5]
1 | B1 | could compete | 44 β-galactosidase units | 46 | – | – | – | –
2 | B2 | could compete | 67 β-galactosidase units | 88 | 60 | 93 | more than 30% | most potent inhibitors
3 | B3 | apparently did not | 84 β-galactosidase units | 62 | – | – | – | –
4 | B4 | could compete | 48 β-galactosidase units | 62 | – | – | – | –
5 | B5 | could compete | 60 β-galactosidase units | 52 | – | – | – | –
6 | B6 | – | 72 β-galactosidase units | 58 | – | – | – | –
